Reference: patent US20100136594

Columns and labels:
[1] = molecular target: T1, 20-mer peptide substrate GEIIGGTECKPHSRPYMAYL (SEQ ID NO: 1)
T1 chain: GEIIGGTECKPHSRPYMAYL

[2] = molecular target: T2, Dipeptide substrate Gly-Arg labeled with alpha-methylcoumarin (AMC)
T2 chain: GR

B1: Dipeptidyl peptidase I (DPPI) (protein)
chain 1: not shown
chain 2: LPTSWDWRNVHGINFVSPVRNQASCGSCYSFASMGMLEARIRILTNNSQTPILSPQEVVSCSQYAQGCEGGFPYLIAGKYAQDFGLVEEACFPYTGTDSPCKMKEDCFRYYSSEYHYVGGFYGGCNEALMKLELVHHGPMAVAFEVYDDFLHYKKGIYHHTGLR
chain 3: not shown
In the case of B1, the KM [1] is reported as 62 µM, the Kcat [1] is reported as “about 62 µM, 1.15 sec^-1, and 1.95×10^4 M^-1sec^-1, respectively” and the kcat (Mmin^-1) [1] is reported as 1.15 s⁻¹. For the same protein, the KM [2] was 64 µM and the kcat (Mmin^-1) [2] was 94.5 s⁻¹.
